Results as given in paper PMC4759192.

Assays:
[1] = molecular target: complex IV (cytochrome c oxidase) (bovine (endogenous in bovine heart)); assay: absorption spectroscopy of the co-purified supercomplex; concentrations of b-type and c-type cytochromes (redox difference spectra) and of complex IV (reduced form) in eight supercomplex samples, room temperature, HEPES-Na pH 7.8 with sucrose
[2] = molecular target: complex I (NADH dehydrogenase) (bovine (endogenous in bovine heart)); assay: as above
[3] = molecular target: complex III (cytochrome c reductase/cytochrome bc1 complex) (bovine (endogenous in bovine heart)) (UniProt P00157); assay: co-sedimentation + native gel or EMSA; crystalline complex III exchanged into amphipol, stepwise sucrose gradient 0.8-1.2 M in HEPES-Na pH 7.8, 105,000 x g, 15 h, 4 C; fractions by BN-PAGE
[4] = molecular target: complex IV (cytochrome c oxidase) (bovine (endogenous in bovine heart)); assay: native gel or EMSA; BN-PAGE of bovine heart mitochondria solubilized with digitonin

ratio b-type cytochrome/complex IV1 (average) (b-type cytochrome per complex IV monomer) [1]	ratio c-type cytochrome/complex IV1 (average) (c-type cytochrome per complex IV monomer) [1]	stoichiometry N (complex III per complex IV) [1]	stoichiometry N [3]	stoichiometry N [4]	Substance	stoichiometry N (complex III per complex I) [2]	stoichiometry N (complex IV per complex I) [2]
3.88	2.2	2	2		complex III (cytochrome c reductase/cytochrome bc1 complex) (from UniProt P00157 1-379; P00125 85-325)	2	
				2	complex IV (cytochrome c oxidase)		1
